For this data set, the system named is Escherichia coli TOP10. As to the kind of experiment: shrunken log2 fold change of peptide-encoding DNA abundance (4.5 h post-induction vs induction); higher = less antimicrobial activity (less host growth inhibition). The following applies: time post-induction: 4.5 h; library: site-saturation at positions 5, 18, 19, 20.
With RRIRGRPPRLPRPRPRPSADPRP, the “shrunken log2 fold change” value came to 1.91.
The figure for RRIRYRPPRLPRPRPRPHELPRP is -0.00663.
As for RRIRERPPRLPRPRPRPSFPPRP, the “shrunken log2 fold change” value is -0.704.
The figure for RRIRHRPPRLPRPRPRPQGTPRP is -0.284.
Consider RRIRVRPPRLPRPRPRPLNGPRP, for which the “shrunken log2 fold change” value is 0.103.
Next, RRIRWRPPRLPRPRPRPCICPRP: 0.16; RRIRERPPRLPRPRPRPNNCPRP: -0.24.
The figure for RRIRARPPRLPRPRPRPCGCPRP is 0.807.
The figure for RRIRVRPPRLPRPRPRPVMQPRP is -0.0429; for RRIRLRPPRLPRPRPRPQTQPRP it is 0.0159; for RRIRYRPPRLPRPRPRPVGQPRP it is -0.106.
In the case of RRIRCRPPRLPRPRPRPYLQPRP, the “shrunken log2 fold change” value was -0.144.
Regarding RRIRRRPPRLPRPRPRPVMYPRP, the “shrunken log2 fold change” value was -0.127.
Next, RRIRSRPPRLPRPRPRPGKPPRP: 0.0657.
The figure for RRIRLRPPRLPRPRPRPSPDPRP is 0.164; for RRIRIRPPRLPRPRPRPIPMPRP it is -0.705.
The figure for RRIRCRPPRLPRPRPRPEIWPRP is 0.471; for RRIRMRPPRLPRPRPRPPNQPRP it is 0.42; for RRIRCRPPRLPRPRPRPKDGPRP it is 0.408.
On to RRIRQRPPRLPRPRPRPPIQPRP, for which the “shrunken log2 fold change” value is -0.164.
Next, RRIRGRPPRLPRPRPRPYAYPRP: -0.0803; RRIRMRPPRLPRPRPRPTSYPRP: -0.0286.
Next, RRIRVRPPRLPRPRPRPMTMPRP: -0.0831; RRIRWRPPRLPRPRPRPHEPPRP: 0.0371.
Next, RRIRYRPPRLPRPRPRPYYEPRP: -0.28.
In the case of RRIRHRPPRLPRPRPRPAWMPRP, the “shrunken log2 fold change” value is 0.574.
The figure for RRIRLRPPRLPRPRPRPPLVPRP is 0.402; for RRIRWRPPRLPRPRPRPLPKPRP it is 0.12.
Next, RRIRIRPPRLPRPRPRPWTAPRP: -0.307; RRIRTRPPRLPRPRPRPDDAPRP: -0.0135; RRIRIRPPRLPRPRPRPDGLPRP: 0.0731.
The figure for RRIRTRPPRLPRPRPRPSHLPRP is -0.411; for RRIRERPPRLPRPRPRPKFKPRP it is -0.355.
For RRIRDRPPRLPRPRPRPDYIPRP, the “shrunken log2 fold change” value was found to be 0.0998.
The figure for RRIRDRPPRLPRPRPRPCLQPRP is -0.0105; for RRIRCRPPRLPRPRPRPWLFPRP it is -0.179; for RRIRQRPPRLPRPRPRPWWPPRP it is -0.119.
Next, RRIRCRPPRLPRPRPRPQYVPRP: -0.345; RRIRVRPPRLPRPRPRPMNWPRP: -0.474; RRIRQRPPRLPRPRPRPKLFPRP: -0.0707.
Turning to RRIRTRPPRLPRPRPRPNLCPRP, the “shrunken log2 fold change” value came out at 0.108.
As for RRIRTRPPRLPRPRPRPKEVPRP, the “shrunken log2 fold change” value is -0.0117.
Next, RRIRHRPPRLPRPRPRPHPQPRP: -0.185; RRIRPRPPRLPRPRPRPVWRPRP: 0.516; RRIRMRPPRLPRPRPRPPNPPRP: 0.822.
For the sequence RRIRRRPPRLPRPRPRPNFFPRP, the “shrunken log2 fold change” value was 0.184.
Next, RRIRRRPPRLPRPRPRPVTNPRP: 0.266; RRIRMRPPRLPRPRPRPAWAPRP: 0.663; RRIRGRPPRLPRPRPRPWKTPRP: -0.0497.
For the sequence RRIRVRPPRLPRPRPRPKPAPRP, the “shrunken log2 fold change” value came to 0.431.

The record behind these values is the supplement of paper PMC9112550, “Optimization of the antimicrobial peptide Bac7 by deep mutational scanning” (BMC Biology, 2022).
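Note: peptides expressed intracellularly from a pBAD plasmid library in pooled LB shake-flask culture, induced with 0.3% L-arabinose, DNA abundance read by NGS, three biological replicates, DESeq2 with apeglm shrinkage.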
